From patent US20250270308A1 (UCB, published 2025)

Target: T1, human TNFα in complex with compound (1) (human, UniProt P01375 77-233)
T1 construct: also called human TNFα + compound (1); compound-distorted human TNFα
Assay: size exclusion HPLC

T1 sequence (P01375 77-233 limits assumed, one chain of several): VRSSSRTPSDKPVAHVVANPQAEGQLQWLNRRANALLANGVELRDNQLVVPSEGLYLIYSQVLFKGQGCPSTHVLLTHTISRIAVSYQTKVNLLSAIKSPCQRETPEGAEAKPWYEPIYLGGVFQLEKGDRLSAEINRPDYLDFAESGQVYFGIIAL

stoichiometry: 1 Fab per TNFα trimer
B1: CA185_01979 mouse Fab (no hinge) (Fab, V domains shown)
VH: EVHLVESGPGLVKPSQSLSLTCSVTGYSITNSYWDWIRKFPGNKMEWMGYINYSGSTGYNPSLKSRISISRDTSNNQFFLQLNSITTEDTATYYCARGTYGYNAYHFDYWGRGVMVTVSS
VL: DIQMTQSPASLSASLEEIVTITCQASQDIGNWLSWYQQKPGKSPHLLIYGTTSLADGVPSRFSGSRSGTQYSLKISGLQVADIGIYVCLQAYSTPFTFGSGTKLEIKR
notes: also called CA185_01979 mFab; CA185-01979 Fab fragment
